Source: publication PMC3098231

Molecular target: human alpha-thrombin (Homo sapiens, UniProt P00734;P00734 328-363;364-622)
Assay: SPR imaging (k-1/k1); 50 nM thrombin; 20 mM Tris-HCl pH 7.4, 140 mM NaCl, 5 mM KCl, 1 mM CaCl2, 1 mM MgCl2; SPR at 25 C; EMSA in the same selection buffer, 14% native PAGE in 1X Tris-glycine at 4 C

Row | Binder | Kd
1 | ACACGCGCATGCGGTTGGTGTGGTTTGGCATGCGCCACA (structured_DNA, 3'-thiol for SPR) [Motif Ia rank 3 hairpin] | 170 nM
2 | ACACGCGCATGCGGTTGGTGCGGTTGGGCATGCGCCACA (structured_DNA, 3'-thiol for SPR) [Motif Ia rank 25 hairpin] | 2200 nM
3 | ACACGCGCATGCGGTTGGTTTGGTTGGGCATGCGCCACA (structured_DNA, 3'-thiol for SPR) [Motif Ia rank 9 hairpin] | 650 nM
